The record followed here is the domain aggregation screens of Martell et al. (2025).

This data set in a line: soluble fraction after stress (log2 fold change); higher = more stays soluble; pooled small domains, quantitative proteomics. The settings on record: stress: pH 4. An outline of the steps:
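Following acid stress at pH 4, the amount of each small protein domain still soluble was measured in pooled custom libraries by high-throughput quantitative proteomics. Its fold change, on a log2 scale, is higher when more of the domain stayed soluble. This fold change is taken as a measure of aggregation propensity.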
“HMTETPDDLLAALKKNKKAQATFDAFSPSNKKEYILWITEAKTEATRTKRLETAIEWMSEGKARNW”: the “soluble fraction (log2)” value amounted to 0.0435.

Regarding “HMTETTTVPKLKGLTKDEAEDAAKSSKIKLEFIDEISKTVEAGVIIKQEKDEGETVNAGDTVKVYVSIGT”, the “soluble fraction (log2)” value is -0.0593. Take “HMTEWSIHEVAQRSGVTTRTLRHYDAIGILSPTRTGANGYRYYGPEALVRLQRILLLRDLGLALSDIAE”: the “soluble fraction (log2)” value was -1.66. For the sequence “HMTEYFTIESQEGERIDRYLSEELEDKSRSYIQKLIRDGHVLVDGKTVKAGYRLVAGDNIAITLPEI”, the “soluble fraction (log2)” value is -0.133.

Consider “HMTFAPTAIPSLTRPMEELMSWSFTPNEAFILSRINGLWDVRSIAKISPFPEGEVLRVFEKLHDGGLIRW”, for which the “soluble fraction (log2)” value is -1.54. For “HMTFNEPSPKEIMDYSLSRGYKVDADAFIDFYRGKAKAYGKEGLWLDGRGRLVKDWRAKLRVVWFKDENKL”, the “soluble fraction (log2)” value is -1.09. Take “HMTGDIGAEAAKAAALAHAGVTESQTAKMKVDRDWDDGRLEYDVEFDVGRTEYEYTIDGVTGAVLEYEQDI”: the “soluble fraction (log2)” value was 0.0208. For “HMTGDIIKQERKKKNLTQIELAKKVGISRNALINYEAGTRIPPISVQLKLADVLGIDILDLK”, the “soluble fraction (log2)” value is -0.0221.

“HMTGDISRALDQLPADMRTVLILYALEKQRYEDIAQITGVSVGTVKSRLNRARQKLAAILANQREQNE”: the “soluble fraction (log2)” value is -0.101. Regarding “HMTGDNQTIGGGGFHHVAIRAHDFDASVKFYGETLGFREKIAWGEGDKRAIMMDTGDGNYIEIF”, the “soluble fraction (log2)” value is -0.0678. Consider “HMTGEDIKKVILREYAREKSLLSIFHELSKVNSNVTLEVIKDIITNIDKLPNDLLQYFKEESSFYQKNKN”, for which the “soluble fraction (log2)” value was -1.35. As to “HMTGGIWVQIQGAVERPGVYSLPRDSRLKDLLEAAGGFGRDADTEKVNQAARLEDGAMYRVPRQGEG”, the “soluble fraction (log2)” value was 0.164. The result for “HMTGGLLVHVAGAVGAPGVVSLPEGARVVDAIEAAGGAREDADTDQLNLARPVVDGEQVRVPVVGEVLE” reads 0.22; that for “HMTGINMSYEEYKAMADIIVPLIKAGHSPYHIVTNHPELNISEKTLYNYIENGIFREFGLLDINL”, -1.91; that for “HMTGIRVYPNPTSSELRFSVATDAALYDATGARLRVVRGSDMMDIRDLASGTYYVRFADGSTQSVVVT”, -0.0136.

In the case of “HMTGKLGKIILQPKQTVYGITKKYQISESELRRLNPQLDSHLKIGDEVILPAENIKKFGGNQPVAVS”, the “soluble fraction (log2)” value is no less than 0.43.

“HMTGKTTLEYLNPLLERGIPVWDYLAKASGKAKEEVQEMVSKGLVPGAEAAKAIADYMGAEFAGSMA”: the “soluble fraction (log2)” value is -0.343. For “HMTGKVKWYDADKGFGFVTEDGGRDVYVRKSALPQGVETLKAGQRLEFGIAEGRRGPQALSVR”, the “soluble fraction (log2)” value was -0.0382. The figure for “HMTGLFSPTEQTRHSKTGATLYSVKLAERIERNAFQSLKKRAKEHDGYYSSFTRSFLFDTPEDAEAFRGT” is -0.0888. In the case of “HMTGMEASLSKLLQGEQFADLRKALIDKGIRKLEAFKRLNLWVFMNRNRLYSIGQRQTVYSTLQRALASE”, the “soluble fraction (log2)” value was 0.085. The figure for “HMTGREIDQLFSVVNDLKAKGVGMVFISHHLDEIARIADSVSVLRDGGFVAEVPASTPEKKLVTLMVGRDI” is -0.369; for “HMTGWINVDKNWYYMNNSGSMARGMINVNNVSYYLDENGKMLSNTTVNVNGTDYRIDASGAMSQI” it is -0.153; for “HMTHEIKIKSHSLFASEGTKYQWYLNNIKINDATSQELEITSPGIYKLEMTNFDGDVIEKQIIVGLTNS” it is -1.52.

For the sequence “HMTHHGHSIKRIRDMLGIKQETLAAELNMTQQAFSKLEQKEQIEDEMLDKIAKILHVSTEALKT”, the “soluble fraction (log2)” value is -0.459. As for “HMTHPAHLARIGALIRSARQHEGLTQAQLAELLGTSQSAIHRIEQGGQNITLDMLTRISAALDSEIVTIG”, the “soluble fraction (log2)” value was -1. Turning to “HMTHPQVEAYLDDLARMLADIDPGERDDILASVREHLDAEIAAGHGSDAVVNATLLRLGPPEQVAAAARTN”, the “soluble fraction (log2)” value was -0.899. Turning to “HMTIAFPSNDVDAVVGYFESRGFDRTASISTATVILQQAKIDGVKVFELIDTLQGMDKVQLSYIVTEILN”, the “soluble fraction (log2)” value was -0.0582. For “HMTIATLGERIRKLRKERGLTLAELAGDKLSKGMLSLIENNRAKPSMESLEYIAKRLGVEPAELLE”, the “soluble fraction (log2)” value worked out at 0.297.

As to “HMTIENTDTFLETLWEQVQRASVDENGIITSRVLIWDEGTKLDEILSWFDKRHSLGALYLQFG”, the “soluble fraction (log2)” value was -1.74. On to “HMTIFGWQTDETGKWYRNADGTFFEAGWKEIDGAKYYFDENGYVKTGWLELDGKDYYFDEEGRYDSSKVR”, for which the “soluble fraction (log2)” value is -1.69. On to “HMTIGLLISKARTNSGLTQAELATRAGTSQAAIARYESDRVSPSVSTLERVLRAAGEELVISSS”, for which the “soluble fraction (log2)” value was -0.0184. “HMTINPFSTLAVRELEILHYLLNGHRTKEIATNLGLKMNTVSTIKSNIFEKVKADSFTHLLQLAHVHQIS”: the “soluble fraction (log2)” value is -0.0952. The result for “HMTIQNSILDEIPNIGASRKRAILEAFGSVHRLRKASPEMISAKVEGIGPEMAQAIHDYLVKHPAT” reads 0.223. On to “HMTISAQAITPRLEVIKNFVLMEEWDAAQTQLEKLRSFTEIWSLDPLFSAMKKKDGQKISDWITGFIKDNM”, for which the “soluble fraction (log2)” value is -1.69. As for “HMTISDEAMQAGRDAFIQALVAMGAEKNADAMASIEKALSADPGNKEYLATRDLIKKSMGMKK”, the “soluble fraction (log2)” value turned out to be 0.138. With “HMTISGSDLKAQREALNIPLERIAKETRIRLSILQDLEDEEYSELSSSAQTKGFLRLYADYLSSHKQRLG”, the “soluble fraction (log2)” value stood at 0.0379. For “HMTITDDETHKVLEEGASRMSEGLTFRDLVDLDRLHLTARGVIQKVLNENRIDADVDTIANMAQKLVARVS”, the “soluble fraction (log2)” value was -0.567. In the case of “HMTKAEVLLDLQQRIISEEFLPGSWLVERDLSSEYGLSRTPIREILNKLVILGLISVQKNRGYQVR”, the “soluble fraction (log2)” value was -0.792.

Regarding “HMTKAILTANDVRNGDIVFWTADQRWSTSIDDAAIGYGKDDTDQLADAGKQAEAANTVVGAYLIALR”, the “soluble fraction (log2)” value was -1.14. As for “HMTKASEELYFRLKEELGTGVIVEHKKYGEGVVTQLDDRLVHIMFQDDTLRMMDLKILANAGLLKVK”, the “soluble fraction (log2)” value was -1.87.

As for “HMTKDYVVIYEGLAQTEAVEILGKLQEMGVSAKVDHNDSILVLKDEEDQIRMALATEGYPKS”, the “soluble fraction (log2)” value is -0.803. “HMTKEEKEKREKYEKLMKKADELVTAKNHKEAVTVLGQAKAYANPQQTKEIEEKIKAQTAELDKG”: the “soluble fraction (log2)” value worked out at 0.24. In the case of “HMTKGVQMFAEQLKRTRQSRHYSQAEIASKLGVTQQAIAKWETGVSTPSPTSISKLSDILGISTDVLLKGA”, the “soluble fraction (log2)” value was no less than 0.43. The figure for “HMTKIAFPQMLNKYRLQKNLTMEQLAEEVGKTKSTISKWEAGTRSPKIYEIEEIAKYFGVEPQTMMF” is -0.548; for “HMTKINAPMPGNILDVKVNVGDHVEANQLVLMLEAMKMENEIFTPVAGTVVGVHVKKGDSVNSDDLLISI” it is -1.09; for “HMTKKEFLDILTESLAGNVPASEIEENIRYYKDYIENGEESEEKALEQLGDPHLIARTIIDSFIA” it is -1.46. Take “HMTKLLSALQADKFAKKLANDTNFGSNFARMGESAMDFTNRLVEELQRDEGKVANYMPYLTKLGF”: the “soluble fraction (log2)” value is -0.305.

Turning to “HMTKLSPKEKSILHIIGDNAGIKSGQIAKRLDIPSPTVKRILSDLVSQNLIEKFGTGPGTNYSI”, the “soluble fraction (log2)” value was determined as 0.22.

For “HMTKLTTDERSVYLHIQNKPGVSASSIREALGYKKSKLTSILAQLLEVHKIIDTEGTGKSLKYIL”, the “soluble fraction (log2)” value worked out at 0.091.

“HMTKMTPNRQLVLSVLQSSGKPLSAYELLDRLREQGTQWQPPTAYRALDYLVEQGLAHYLQSIQKYV”: the “soluble fraction (log2)” value was -0.317. The figure for “HMTKNEFLASFQNELQKRHIPDWEDVVSEYEQHFALKQADGFSEEEIAAKLGAPAELAAQFEA” is -0.0811. As for “HMTKQIILVHVAGKVKKPDVYPLLQGSRVADAIKAAGGAKKGVELNDINLARVLIDGEQVFVGYVPE”, the “soluble fraction (log2)” value was -0.277.

With “HMTKQRSAIMNLLAERNTPLTAEEIGEAIAPSYPKLALSTVYRNLELFTNAGLLEKSFFQDGITRYSLTK”, the “soluble fraction (log2)” value was -0.242. Take “HMTKRTEPSILQNFDTEIAELIAKNRGISIMDALRIFLASKTHEMLENDEMKLWYFSPLAVFDMWENE”: the “soluble fraction (log2)” value was -0.61.

For the sequence “HMTKSIDFDFREDGVYIKADKDVTIVDIVTKIDLRRIQSVDLTKIKQMLEIGSLDNWIKIAEPQMEK”, the “soluble fraction (log2)” value was -1.44. The result for “HMTKSTLQRQKIIADLIESGNISSQNQLKGLLKKNSLLITQATLSRDLSELGAIKKRQKDGLLVYVLPK” reads -0.0863; that for “HMTKTKADKIDYAIGDSGTEPPTEDKWTDLAHLPLIKAGQFQWTRRTEYYSDGSTAVSYNIAKSE”, 0.156; that for “HMTKYKEIVDQLRTNIYEGVFPALSKLPEQTALAKRFQTSRMTIQKALNQLKQEGLISTKRGHGTYVNSAT”, 0.021. “HMTKYVEGQKYVFEFRDGTITIGTYLRTGEGNIYIKDLSGEDIYIPKIMIAQIHLATDDNVKGDEFWF”: the “soluble fraction (log2)” value was -1.17. On to “HMTLDSLEKLSVNDLEKMLVNMPVGYKTIFLLSVIDEYSHKEIGELLGITPETSRSQLFRAIKWIKTNIF”, for which the “soluble fraction (log2)” value is -0.706. “HMTLGARTLAAIQSLPKVQQAVFTMKHFEGLKYREISQITGTSEGALKASYHIALEKIKAFLREK”: the “soluble fraction (log2)” value was -0.443. Consider “HMTLGEHILQYRTARGWSQEDLANALEVSRQSVSKWETDASTPELDKIVRLSEIFQVSIDELVTGKA”, for which the “soluble fraction (log2)” value stood at 0.0683.

As for “HMTLGENLQNLRKEAGLSQEQVAQQLFVSRQTVSKWENNLAEPGVENLKALARLYGVTLDRLVGM”, the “soluble fraction (log2)” value was -0.323. The result for “HMTLKVQLSEISKMVSLSYIAKKYFNKSQSWLSQRINGNTIHNKPAKFTSEELATLQFALKDIGNILNSTV” reads -0.658.

Take “HMTLLVPASKEAILGGLAKIDALKVILKPEKDYSKTHAMTIGTKDEVIAKLDSFLSGMDSEKNQVLIQEYM”: the “soluble fraction (log2)” value is -0.135. Consider “HMTLSDIGHAVRTRRTELGLSQVQLARLSGLSRQTLVGLENGTLNDLGINRVAQLLAVLGLDAP”, for which the “soluble fraction (log2)” value is -0.203. “HMTLSHAINRLRLNANMSQEQFAGLFHVSQQSVQKWESGDSVPELSKLIAIAKHFGISLDALILGN”: the “soluble fraction (log2)” value came to 0.0336. As for “HMTLTEQQITDNYKELRKIINDTFSGLRLDKLNHMYDDLEDRMVVAPASSVEHYHNSKVGGYVEHILHVI”, the “soluble fraction (log2)” value is -0.132. “HMTLTIEDGYVNAKLKTTVEGLAEDSTIKVDSIEYTNAGKNDILTVFVEDKPYRVEKYKINIAPEDS”: the “soluble fraction (log2)” value is -1.12.
